Data set [1] has as its target T1, WUS-1 (Myroides albus, UniProt A0A6I3LH21, K23R).
T1 construct: gene bla; mature domain, signal peptide removed (predicted cleavage between 19 and 20, Ala/Gln); pCold I in E. coli BL21, His-tag cut with thrombin; zinc enzyme
The data set is described as follows: spectrophotometric imipenem hydrolysis, inhibition. Type of data set: biochemical.

Data set [2] relates to CO[C@@]1(NC(=O)Cc2cccs2)C(=O)N2C(C(=O)O)=C(COC(N)=O)CS[C@@H]21. The data set is described as follows: continuous spectrophotometric hydrolysis assay, Michaelis-Menten fit. The format is biochemical, Myroides albus. The settings on record: 10 mM phosphate pH 7.4, 50 μM ZnCl2, 30 °C, SD within 15%. An excerpt:
(§1) continuous spectrophotometric hydrolysis assay, Michaelis-Menten fit on WUS-1

Data set [3] relates to CC1(C)S[C@@H]2[C@H](NC(=O)[C@H](N)c3ccccc3)C(=O)N2[C@H]1C(=O)O. Described as above. The settings on record: 10 mM phosphate pH 7.4, 50 μM ZnCl2, 30 °C, SD within 15%. The format is biochemical, Myroides albus.
From the text: as §1

Data set [4] relates to CC1(C)S[C@@H]2[C@H](NC(=O)C(C(=O)O)c3ccccc3)C(=O)N2[C@H]1C(=O)O. The data set is described as above. The format is biochemical, Myroides albus. The conditions noted are these: 10 mM phosphate pH 7.4, 50 μM ZnCl2, 30 °C, SD within 15%.
From the text: as §1

The test system of data set [5] is Cc1nnc(SCC2=C(C(=O)O)N3C(=O)[C@@H](NC(=O)Cn4cnnn4)[C@H]3SC2)s1. The data set is described as above. The format is biochemical, Myroides albus. The conditions noted are these: 10 mM phosphate pH 7.4, 50 μM ZnCl2, 30 °C, SD within 15%.
From the text: as §1

The subject of data set [6] is C[C@@H](O)[C@H]1C(=O)N2C(C(=O)O)=C(S[C@@H]3CN[C@H](C(=O)N(C)C)C3)[C@H](C)[C@H]12. The description is as above. The conditions noted are these: 10 mM phosphate pH 7.4, 50 μM ZnCl2, 30 °C, SD within 15%. The format is biochemical, Myroides albus.
From the text: as §1

Data set [7] deals with CC1(C)S[C@@H]2[C@H](NC(=O)[C@H](C(=O)O)c3ccsc3)C(=O)N2[C@H]1C(=O)O. The data set is described as above. The settings on record: 10 mM phosphate pH 7.4, 50 μM ZnCl2, 30 °C, SD within 15%. Type of data set: biochemical, Myroides albus.
From the text: as §1

Data set [8] concerns C[C@@H](O)[C@H]1C(=O)N2C(C(=O)O)=C(SCCN=CN)C[C@H]12. The data set is described as above. Type of data set: biochemical, Myroides albus. The settings on record: 10 mM phosphate pH 7.4, 50 μM ZnCl2, 30 °C, SD within 15%.
From the text: as §1

T1 sequence (A0A6I3LH21 entry or part of it K23R): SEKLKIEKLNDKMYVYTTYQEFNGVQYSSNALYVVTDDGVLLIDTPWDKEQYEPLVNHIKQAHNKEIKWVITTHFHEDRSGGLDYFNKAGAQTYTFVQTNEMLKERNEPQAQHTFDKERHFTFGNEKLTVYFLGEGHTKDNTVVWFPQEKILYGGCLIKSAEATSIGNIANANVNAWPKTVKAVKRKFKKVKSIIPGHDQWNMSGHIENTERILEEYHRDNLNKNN

The IC50 is the concentration that gives 50% inhibition. In data set [1], `O=C(O)CN(CCN(CC(=O)O)CC(=O)O)CC(=O)O` [EDTA] gave an IC50 of 71.3 µM.

A word on the Km: it is the concentration of substrate that gives half-maximal velocity. As usually defined, the kcat is the maximal rate divided by the concentration of active sites. By kcat/Km is commonly meant the second-order rate constant that governs catalysis at low substrate concentration. Regarding WUS-1 (Myroides albus; K23R), the Km in data set [2] worked out at 44.33 µM; in data set [3], 290.2 µM; in data set [4] it was 581 µM; in data set [5], 59.86 µM; in data set [6] it was 147.4 µM; in data set [7], 827.4 µM. The Km in data set [8] was determined as 334.8 µM. Moreover, the kcat in data set [2] came to 14.2 s⁻¹; in data set [3] it was 2920 s⁻¹; in data set [4], 1120 s⁻¹; in data set [5], 33.9 s⁻¹; in data set [6], 477 s⁻¹; in data set [7] it was 703 s⁻¹. Also, the kcat in data set [8] amounted to 1340 s⁻¹. The kcat/Km in data set [2] stood at 320000 M⁻¹ s⁻¹; in data set [3], 1.01e+07 M⁻¹ s⁻¹; in data set [4], 1.93e+06 M⁻¹ s⁻¹; in data set [5], 570000 M⁻¹ s⁻¹; in data set [6], 3.24e+06 M⁻¹ s⁻¹; in data set [7] it was 850000 M⁻¹ s⁻¹. Moreover, the specificity constant (kcat/Km) in data set [8] is 3.99e+06 M⁻¹ s⁻¹.

Source of the values: publication PMC9751785, “Characterization and Identification of a novel chromosome-encoded metallo-β-lactamase WUS-1 in Myroides albus P34” (Frontiers in Microbiology, 2022).
